Source: paper PMC7445246 (Signal Transduction and Targeted Therapy, 2020)

Legend:
Details in all cases: both partners purified
recombinant human PD-L1 [1] = target: T1, recombinant human PD-L1 (Homo sapiens, UniProt Q9NZQ7); test: SPR; JS003 immobilized on the chip; serial dilutions of PD-L1 from 0.75 nM to 24 nM flowed through
T1 construct: PD-L1, human; the methods are probably in the supplementary material; In the internalization assay hPD-L1 was expressed on CHO-K1 cells; also called hPD-L1

recombinant human PD-L1 [2] = target: T1, recombinant human PD-L1; test: SPR; JS003 captured on biosensor; association with recombinant human PD-L1 at pH 7.4; dissociation followed at pH 5.5 (compared with pH 7.4)
recombinant human PD-L1 [3] = target: T1, recombinant human PD-L1; test: SPR; JS003 captured on biosensor; association with recombinant human PD-L1 at pH 7.4; dissociation followed at pH 6.0 (compared with pH 7.4)

T1 sequence (Q9NZQ7 19-290): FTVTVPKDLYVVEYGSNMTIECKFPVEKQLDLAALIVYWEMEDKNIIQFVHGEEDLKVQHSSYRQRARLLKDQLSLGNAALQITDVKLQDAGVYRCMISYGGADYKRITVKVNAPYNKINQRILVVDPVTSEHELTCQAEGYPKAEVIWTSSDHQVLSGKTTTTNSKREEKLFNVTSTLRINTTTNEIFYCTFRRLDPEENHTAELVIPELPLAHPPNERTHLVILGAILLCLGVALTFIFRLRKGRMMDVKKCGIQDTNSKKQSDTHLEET

B1: JS003 (antibody, V domains shown)
VH: QGQLQESGPSLVKPSQTLSLTCTVSGDSITRGYWNWIRKHPGKGLEYIGYISYTGSTYSNLSLKSRVTISRDTSKNQYYLKLSSVTAADTAVYYCATSTGWLDPVDYWGQGTLVTVSS
VL: DIVMTQSPDSLAVSLGERATINCKASQNVDTSVAWFQQKPGQPPKALIYSASFRYSGVPDRFSGSGSGTDFTLTISSLQAEDVAVYFCQQYYGYPFTFGQGTKLEIK
notes: humanized PD-L1 specific mAb; Fab part as the heavy chain of m2; as the light chain of m2; Whole humanized mAb; Labelled with CypHer5E in the internalization assay only; also called JS003 antibodies
Which Kd (recombinant human PD-L1 [1]) does the source give for B1 here?
The Kd was 0.288 nM.

And the “fold faster dissociation rate at pH 5.5 than at pH 7.4” value (recombinant human PD-L1 [2])?
The value was 8.7 fold.

What about the “fold faster dissociation rate at pH 6.0 than at pH 7.4” value (recombinant human PD-L1 [3]) of the same binder?
Its value is 3.4 fold.
